± gives the standard deviation of the averaged measurements.
system: Saccharomyces cerevisiae; assay: protein stability index of tFT-peptide fusion (C-terminal peptide) (PSI (0-1 scale)); higher = more stable (slower turnover); conditions: genetic background: wild type; temperature: 30 C
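Also: PSI is a weighted mean of sequencing reads over stability bins, variants kept only with over 10 reads, mCherry proximal and sfGFP distal, peptide attached via GGGS linker.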

Row | Sequence | protein stability index
1 | VPRTPPTTSWFP | 0.682 ± 0.026
2 | VPSPHLQPTVSP | 0.654 ± 0.0074
3 | VPTELGGTLIPT | 0.664 ± 0.11
4 | VPVRLRSGGVSP | 0.66 ± 0.058
5 | VPVVQPNRSALI | 0.7454 ± 0.0071
6 | VQQSRTQKDQHV | 0.623 ± 0.054
7 | VQRPALPPRHPP | 0.612 ± 0.005
8 | VRARRSSREVNY | 0.755 ± 0.05
9 | VRCCFGGRGGRA | 0.637 ± 0.035
10 | VRCGGRGRAGKG | 0.634 ± 0.03
11 | VRCWEDGFLDSS | 0.7293 ± 0.0042
12 | VREMMGFWFVPL | 0.691 ± 0.11
13 | VRFPCGFCKKLS | 0.637 ± 0.036
14 | VRFYVFSFSNWL | 0.586 ± 0.031
15 | VRGGVSWGMRGG | 0.634 ± 0.089
16 | VRGVGGLWVGAV | 0.684 ± 0.012
17 | VRGVGLVDVVGL | 0.727 ± 0.12
18 | VRIIVVDLGGRR | 0.684 ± 0.0082
19 | VRKKGKKKKKDK | 0.678 ± 0.031
20 | VRKKRKKELAKV | 0.794 ± 0.086
21 | VRQSQIKHVVVQ | 0.627 ± 0.019
22 | VRRLSASSDGKI | 0.761 ± 0.14
23 | VRRWGKWSIVGW | 0.736 ± 0.03

Row | Sequence | protein stability index
24 | VRSILEGRRGEK | 0.709 ± 0.032
25 | VRSTPLKEMMRH | 0.681 ± 0.0092
26 | VRVRSLEGWGMG | 0.6687 ± 0.0048
27 | VRVSSSDILICL | 0.675 ± 0.079
28 | VRWSRFCLAFPV | 0.605 ± 0.04
29 | VSDTRELSSDQI | 0.656 ± 0.02
30 | VSFGFHKWCHSR | 0.638 ± 0.015
31 | VSGGRQVGGGGW | 0.72 ± 0.088
32 | VSGGRQVGWGGW | 0.686 ± 0.011
33 | VSGICCRGVLLL | 0.6268 ± 0.00045
34 | VSGLGAHEPDKL | 0.667 ± 0.0072
35 | VSGSTGVWCRWG | 0.668 ± 0.048
36 | VSGVREGCSEME | 0.773 ± 0.11
37 | VSLGHGYVFRRV | 0.6921 ± 0.0058
38 | VSMPVGWRSWGG | 0.694 ± 0.013
39 | VSPTRSRPSSPA | 0.692 ± 0.055
40 | VSRLTVIPAVQT | 0.652 ± 0.027
41 | VSRRCVALRVGN | 0.579 ± 0.017
42 | VSRVDGAGHSAV | 0.66 ± 0.0088
43 | VSSAGAQHQVTH | 0.667 ± 0.025
44 | VSSRWGGWWNGV | 0.655 ± 0.046
45 | VSSVEHCLGHCR | 0.738 ± 0.11
46 | VSVFNFPSLFVG | 0.66 ± 0.063

Row | Sequence | protein stability index
47 | VSVGVCGYKVWG | 0.709 ± 0.1
48 | VSVILAGLFWIT | 0.473 ± 0.038
49 | VSVLCADGVLRM | 0.725 ± 0.028
50 | VSVLCGSRLAFE | 0.685 ± 0.04
51 | VSVRLAINRKEW | 0.6738 ± 0.00093
52 | VSWVMSEMRKGE | 0.697 ± 0.031
53 | VSWVWMGRLGYC | 0.657 ± 0.02
54 | VTCALGIGGVGV | 0.716 ± 0.05
55 | VTFRCHHSRQVM | 0.725 ± 0.14
56 | VTGCAVLSGAGE | 0.675 ± 0.051
57 | VTGSHARFSVPE | 0.658 ± 0.013
58 | VTHDSACSSRLA | 0.683 ± 0.019
59 | VTHREFAGSALG | 0.698 ± 0.022
60 | VTLSYDTKWLWL | 0.665 ± 0.07
61 | VTPLPPPRTFLP | 0.67 ± 0.07
62 | VTPPTPPSRASP | 0.667 ± 0.02
63 | VTPVPFRTMMST | 0.571
64 | VTREEVSAGRGR | 0.657 ± 0.058
65 | VTRLTGKLVAEK | 0.576 ± 0.027
66 | VTSSLHAVPWSR | 0.693 ± 0.0088
67 | VTTDLALCGSVC | 0.624 ± 0.016
68 | VTTPHPPAPPPP | 0.765 ± 0.02
69 | VTTQELRCRPEG | 0.636 ± 0.019

Row | Sequence | protein stability index
70 | VTVCQTRGADSV | 0.579 ± 0.01
71 | VVAGGERMRTGV | 0.671 ± 0.022
72 | VVCLGLPIQAGV | 0.526 ± 0.017
73 | VVCVGGVELLVL | 0.532 ± 0.019
74 | VVCVGSEVGEGG | 0.7243 ± 0.0045
75 | VVFEVFLTHMSM | 0.624 ± 0.065
76 | VVFFSSPHFVRA | 0.609 ± 0.05
77 | VVGAVVLRRGGP | 0.67 ± 0.012
78 | VVGFVPVWRAGS | 0.593 ± 0.031
79 | VVGSVFGGVRAA | 0.708 ± 0.032
80 | VVGVAVSRTFAR | 0.618 ± 0.039
81 | VVIFPPTFISGG | 0.643 ± 0.1
82 | VVIRVKDEPFIM | 0.6781 ± 0.0067
83 | VVKFLALIPLSP | 0.583 ± 0.01
84 | VVLLGAVGLVER | 0.679 ± 0.029
85 | VVLRSTFFGSLL | 0.699 ± 0.0089
86 | VVLSCGIPGCVF | 0.572 ± 0.028
87 | VVLSRSLTDLVR | 0.677 ± 0.077
88 | VVLTGPGYCLTL | 0.763 ± 0.047
89 | VVNVVGRVVPKG | 0.7396 ± 0.006
90 | VVQLSKWSTIIR | 0.64 ± 0.061
91 | VVRHWRRMTGDA | 0.629 ± 0.12
92 | VVRLGSNYYGGT | 0.756 ± 0.004

Row | Sequence | protein stability index
93 | VVRWFGGGGVRG | 0.719 ± 0.1
94 | VVSGIFQVLATC | 0.614 ± 0.084
95 | VVSHRGVGKGEG | 0.607 ± 0.047
96 | VVSLGLGGFVVR | 0.719 ± 0.033
97 | VVTGVRFGVGSI | 0.697 ± 0.039
98 | VVVGGVWIRRVW | 0.654 ± 0.052
99 | VVVGPVTKRGGH | 0.68 ± 0.046
100 | VVVQSGSSYKEY | 0.7 ± 0.11
101 | VVVVCSWPVSLL | 0.5744 ± 0.0042
102 | VVVVSGFKGSCL | 0.637 ± 0.065
103 | VVWRRVIGGLVM | 0.637 ± 0.031
104 | VVWSWCWEYAAV | 0.625 ± 0.013
105 | VWCWCGWGVWGL | 0.629 ± 0.063
106 | VWFLSYLSVIFP | 0.58 ± 0.04
107 | VWGGWRRGRAWW | 0.72411 ± 0.00051
108 | VWGLGGEFWWGV | 0.745 ± 0.014
109 | VWGQGTPFRVVM | 0.655 ± 0.091
110 | VWGTVCSMRREG | 0.63 ± 0.028
111 | VWLLSNGFLAVD | 0.706 ± 0.049
112 | VWRHSGRVASLA | 0.624 ± 0.0098
113 | VWTITGFIPVVF | 0.517 ± 0.032
114 | VYEGIQEKTTRQ | 0.5754 ± 0.0057
115 | VYHQLNDRLSLG | 0.70389 ± 0.00025

Row | Sequence | protein stability index
116 | VYTFGASKSMLG | 0.629 ± 0.035
117 | VYVFGCVVGSGW | 0.639 ± 0.032
118 | WAAGLRVCRSVL | 0.704 ± 0.052
119 | WAASGGAARYAP | 0.684 ± 0.037
120 | WADAAYLGCWWD | 0.737 ± 0.072
121 | WAFGFLFISSAM | 0.5077 ± 0.0014
122 | WAGGRHCKGVVV | 0.681 ± 0.13
123 | WARGVAASGRFV | 0.6916 ± 0.0025
124 | WASRSGPRVTLI | 0.71 ± 0.018
125 | WCGDVLWLMSCG | 0.714 ± 0.016
126 | WCGQVFWCVKES | 0.699 ± 0.039
127 | WCLDCVGFSLPE | 0.687 ± 0.054
128 | WCRVCNRLVVGV | 0.5258 ± 0.0015
129 | WDSGRWSCLRGW | 0.698 ± 0.044
130 | WDVVECCLWRYR | 0.681 ± 0.034
131 | WERREGTGMRAG | 0.748 ± 0.051
132 | WESGRNNWYMNK | 0.798 ± 0.13
133 | WEVLGGFVWASC | 0.6828 ± 0.0045
134 | WFLSGGCLFCWR | 0.714 ± 0.061
135 | WFPRLGKRSRGS | 0.69 ± 0.025
136 | WFQSSLVCDTWL | 0.681 ± 0.015
137 | WFSSPVTISTRK | 0.692 ± 0.11
138 | WGAGGGVWWGGV | 0.704 ± 0.03

Row | Sequence | protein stability index
139 | WGAKGLESIHVM | 0.6 ± 0.019
140 | WGCAGVGGVGGG | 0.6853 ± 0.0065
141 | WGCGGGRDGCGV | 0.647 ± 0.095
142 | WGCGVRWGVDWA | 0.732 ± 0.026
143 | WGGASIGMGFGA | 0.743 ± 0.036
144 | WGGCNTALLTIL | 0.581 ± 0.018
145 | WGGFLVDFGFQG | 0.757 ± 0.046
146 | WGGLGRVWVKLG | 0.706 ± 0.038
147 | WGGLGWVWVKLG | 0.685 ± 0.072
148 | WGGTRCGGREVV | 0.692 ± 0.054
149 | WGGVGLWGGWDG | 0.723 ± 0.058
150 | WGGVRRHGVGGS | 0.648 ± 0.1
151 | WGLIASGSIVIV | 0.548 ± 0.05
152 | WGPGGRLGVGHV | 0.676 ± 0.039
153 | WGRARCAVGVSG | 0.629 ± 0.0092
154 | WGRCVGLAGAAG | 0.677 ± 0.027
155 | WGREGRVPGWAG | 0.671 ± 0.11
156 | WGRGGSGGSWGA | 0.688 ± 0.018
157 | WGRGRGEMVGRT | 0.705 ± 0.038
158 | WGRGRWEMVGRT | 0.693 ± 0.037
159 | WGRNRGASDPNL | 0.7198 ± 0.0046
160 | WGVGCVRGVWGA | 0.714 ± 0.088

From the supplement of paper PMC10724198
